Source: article PMC10082157

Experiments:
[1] = target: human CD19 (human (endogenous in Raji)) (UniProt P15391)
[2] = target: TCR–CD3 complex on T cells (human (endogenous in Jurkat and primary T cells)) (UniProt P07766)
TCR–CD3 complex on T cells (human (endogenous in Jurkat and primary T cells)), sequence (P07766 whole entry, looked up, one chain of several): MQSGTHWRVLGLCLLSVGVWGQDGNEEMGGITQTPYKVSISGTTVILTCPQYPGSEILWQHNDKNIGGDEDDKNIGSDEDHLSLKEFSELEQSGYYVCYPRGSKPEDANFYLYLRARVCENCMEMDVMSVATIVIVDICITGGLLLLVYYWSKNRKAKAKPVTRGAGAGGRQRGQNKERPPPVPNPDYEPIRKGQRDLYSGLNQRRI

human CD19 (human (endogenous in Raji)), sequence (P15391 20-556): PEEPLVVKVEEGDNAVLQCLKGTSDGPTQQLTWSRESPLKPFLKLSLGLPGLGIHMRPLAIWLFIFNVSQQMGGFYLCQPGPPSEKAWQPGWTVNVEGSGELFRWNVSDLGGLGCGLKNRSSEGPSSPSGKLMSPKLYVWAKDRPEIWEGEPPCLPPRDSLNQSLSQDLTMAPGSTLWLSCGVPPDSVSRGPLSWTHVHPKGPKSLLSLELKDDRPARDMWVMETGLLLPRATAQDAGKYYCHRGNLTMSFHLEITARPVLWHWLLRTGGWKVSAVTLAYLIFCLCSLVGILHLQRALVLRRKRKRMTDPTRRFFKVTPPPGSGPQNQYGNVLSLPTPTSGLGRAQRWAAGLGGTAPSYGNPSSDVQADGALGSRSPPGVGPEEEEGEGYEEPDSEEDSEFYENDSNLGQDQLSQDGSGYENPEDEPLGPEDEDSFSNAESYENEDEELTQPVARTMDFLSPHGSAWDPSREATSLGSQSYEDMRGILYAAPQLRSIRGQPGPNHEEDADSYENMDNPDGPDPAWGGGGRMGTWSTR

**Q.** For “Blinatumomab (CD19xCD3 BiTE) (bispecific antibody)”, which activation of Jurkat-ZsG NFAT reporter cells (ZsGreen) in droplets with CD19+ Raji cells and 100 ng/ml Blinatumomab; percent activated [1] is on record?
**A.** The activation of Jurkat-ZsG NFAT reporter cells (ZsGreen) in droplets with CD19+ Raji cells and 100 ng/ml Blinatumomab; percent activated was 40%.

**Q.** What about the activation of Jurkat-ZsG NFAT reporter cells (ZsGreen) in droplets with CD19+ Raji cells and 100 ng/ml Blinatumomab; percent activated [2] of the same substance?
**A.** Its activation of Jurkat-ZsG NFAT reporter cells (ZsGreen) in droplets with CD19+ Raji cells and 100 ng/ml Blinatumomab; percent activated is 40%.
